B1: KRT34 (parent)
chain: YQSYFKTIEELQQKILCAKAENAR
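Also: lentivirally expressed fusions sorted by FACS into six bins by GFP to DsRed ratio, PSI derived from sequencing read proportions per bin multiplied by bin number.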

In the data set the parent is B1. The experiment in a line: protein stability index of a GFP-peptide fusion (GPS, HEK-293T) (PSI 1-6); higher = more stable. The conditions noted are these: c terminus: a fixed tail appended.
As for YQSYFQTIEELQQKILCAKAENAR, the protein stability index was 2.53.
As for YQSYFPTIEELQQKILCAKAENAR, the figure is 1.81.
On to YQSYFLTIEELQQKILCAKAENAR, for which the protein stability index worked out at 2.3.
With YQSYFTTIEELQQKILCAKAENAR the figure was 2.67; with YQSYFCTIEELQQKILCAKAENAR, 1.51.
With YQSYFHTIEELQQKILCAKAENAR the figure was 2.24; with YQSYFDTIEELQQKILCAKAENAR, 2.01; with YQSYFYTIEELQQKILCAKAENAR, 1.66.
Consider YQSYFETIEELQQKILCAKAENAR, for which the protein stability index was determined as 1.85.
Regarding YQSYFATIEELQQKILCAKAENAR, the protein stability index was 1.96.
As for YQSYFWTIEELQQKILCAKAENAR, the figure is 2.18; as for YQSYFRTIEELQQKILCAKAENAR, 1.82.
With YQSYFITIEELQQKILCAKAENAR the figure was 1.91; with YQSYFGTIEELQQKILCAKAENAR, 2.09; with YQSYFMTIEELQQKILCAKAENAR, 2.1.
Turning to YQSYFVTIEELQQKILCAKAENAR, the protein stability index worked out at 2.83.
With YQSYFSTIEELQQKILCAKAENAR the figure was 1.74; with YQSYFKTIESLQQKILCAKAENAR, 1.83; with YQSYFKTIETLQQKILCAKAENAR, 1.27.
With YQSYFKTIEGLQQKILCAKAENAR the figure was 1.7; with YQSYFKTIEMLQQKILCAKAENAR, 2; with YQSYFKTIEYLQQKILCAKAENAR, 2.74.
For the variant YQSYFKTIEALQQKILCAKAENAR, the protein stability index came out at 1.95.
With YQSYFKTIEPLQQKILCAKAENAR the figure was 1.93.
With YQSYFKTIENLQQKILCAKAENAR the figure was 2.19; with YQSYFKTIEVLQQKILCAKAENAR, 2.04.
As for YQSYFKTIEFLQQKILCAKAENAR, the figure is 2.41; as for YQSYFKTIEILQQKILCAKAENAR, 1.96; as for YQSYFKTIECLQQKILCAKAENAR, 1.44.
YQSYFKTIEHLQQKILCAKAENAR: the protein stability index is 1.69.
With YQSYFKTIEQLQQKILCAKAENAR, the protein stability index is 1.19.
As to YQSYFKTIELLQQKILCAKAENAR, the protein stability index was determined as 1.91.
Regarding YQSYFKTIERLQQKILCAKAENAR, the protein stability index is 2.49.
Turning to YQSYFKTIEWLQQKILCAKAENAR, the protein stability index was 1.72.
With YQSYFKTIEDLQQKILCAKAENAR the figure was 1.61; with YQSYFKTIEKLQQKILCAKAENAR, 1.81; with YQSYRKTIEELQQKILCAKAENAR, 1.6.
With YQSYIKTIEELQQKILCAKAENAR the figure was 1.94; with YQSYVKTIEELQQKILCAKAENAR, 1.9; with YQSYEKTIEELQQKILCAKAENAR, 4.08.
On to YQSYCKTIEELQQKILCAKAENAR, for which the protein stability index was 2.24.
With YQSYMKTIEELQQKILCAKAENAR the figure was 2.62; with YQSYAKTIEELQQKILCAKAENAR, 2.01; with YQSYTKTIEELQQKILCAKAENAR, 2.12.
On to YQSYWKTIEELQQKILCAKAENAR, for which the protein stability index was determined as 1.32.
With YQSYQKTIEELQQKILCAKAENAR the figure was 2.53; with YQSYKKTIEELQQKILCAKAENAR, 2.84; with YQSYNKTIEELQQKILCAKAENAR, 3.02.
With YQSYHKTIEELQQKILCAKAENAR the figure was 2.34; with YQSYDKTIEELQQKILCAKAENAR, 3.68; with YQSYYKTIEELQQKILCAKAENAR, 1.62.
Take YQSYPKTIEELQQKILCAKAENAR: the protein stability index was determined as 1.89.
On to YQSYSKTIEELQQKILCAKAENAR, for which the protein stability index was found to be 2.73.
As for YQSYGKTIEELQQKILCAKAENAR, the figure is 3.23; as for YQSYLKTIEELQQKILCAKAENAR, 1.81; as for YQSKFKTIEELQQKILCAKAENAR, 1.52.
In the case of YQSDFKTIEELQQKILCAKAENAR, the protein stability index turned out to be 2.24.
With YQSSFKTIEELQQKILCAKAENAR, the protein stability index was 2.
With YQSGFKTIEELQQKILCAKAENAR the figure was 3.06; with YQSAFKTIEELQQKILCAKAENAR, 2.2; with YQSTFKTIEELQQKILCAKAENAR, 2.98.
With YQSMFKTIEELQQKILCAKAENAR the figure was 1.48.
With YQSFFKTIEELQQKILCAKAENAR the figure was 1.86.
Turning to YQSQFKTIEELQQKILCAKAENAR, the protein stability index was 2.65.
As for YQSNFKTIEELQQKILCAKAENAR, the protein stability index was 2.21.
With YQSRFKTIEELQQKILCAKAENAR the figure was 2.14; with YQSIFKTIEELQQKILCAKAENAR, 2.27; with YQSHFKTIEELQQKILCAKAENAR, 2.4.
With YQSEFKTIEELQQKILCAKAENAR the figure was 1.63; with YQSLFKTIEELQQKILCAKAENAR, 1.93; with YQSPFKTIEELQQKILCAKAENAR, 2.19.
As for YQSVFKTIEELQQKILCAKAENAR, the figure is 1.57; as for YQSCFKTIEELQQKILCAKAENAR, 1.73.
Take YQSYFKTQEELQQKILCAKAENAR: the protein stability index was found to be 1.37.
On to YQSYFKTKEELQQKILCAKAENAR, for which the protein stability index turned out to be 2.47.
As to YQSYFKTTEELQQKILCAKAENAR, the protein stability index worked out at 1.35.
For the variant YQSYFKTVEELQQKILCAKAENAR, the protein stability index is 2.85.
As for YQSYFKTFEELQQKILCAKAENAR, the figure is 2.23.
Take YQSYFKTSEELQQKILCAKAENAR: the protein stability index was 1.77.
Regarding YQSYFKTEEELQQKILCAKAENAR, the protein stability index was 2.6.
With YQSYFKTPEELQQKILCAKAENAR the figure was 2.24; with YQSYFKTGEELQQKILCAKAENAR, 1.48; with YQSYFKTCEELQQKILCAKAENAR, 1.57.
With YQSYFKTHEELQQKILCAKAENAR the figure was 1.62.
With YQSYFKTWEELQQKILCAKAENAR the figure was 1.42; with YQSYFKTMEELQQKILCAKAENAR, 2.26; with YQSYFKTLEELQQKILCAKAENAR, 1.98.
As for YQSYFKTDEELQQKILCAKAENAR, the protein stability index stood at 2.59.
As for YQSYFKTAEELQQKILCAKAENAR, the figure is 2.26.
As for YQSYFKTREELQQKILCAKAENAR, the figure is 2.09; as for YQSYFKTYEELQQKILCAKAENAR, 2.52.
Turning to YQAYFKTIEELQQKILCAKAENAR, the protein stability index is 2.69.
Consider YQWYFKTIEELQQKILCAKAENAR, for which the protein stability index was found to be 1.54.
Turning to YQLYFKTIEELQQKILCAKAENAR, the protein stability index was 1.77.

The record behind these values is the supplement of paper PMC10567573.
